According to the nanobody polyreactivity screen of Harvey et al. (2022):

Test: yeast display, Sf9 membrane polyspecificity reagent, FACS + sequencing; frameworks hold sequencing errors
Outline: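 A synthetic nanobody library was expressed on Saccharomyces cerevisiae BJ5465 by galactose induction for 36–48 hours. The library was stained for 1 hour at 4 °C with 10% biotinylated, detergent-solubilized Sf9 membrane reagent and enriched with streptavidin microbeads before FACS. Low and high (top ~1%) gates were set on anti-HA fluorescence for expression and streptavidin fluorescence for reagent binding, and each polyreactivity label reflects the gate of origin.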

| Sequence | polyreactivity (PSR sort gate) |
| --- | --- |
| QVQLVESGGGLVQAGGSLRLSCAGSGSIYSYNAMGWYRQAPGKERELVAAIDWSGGSTYYADSVKGRFTLSRDNAKNTVYLQMNSLKPEDTAVYYEYDYWGQGTQVTVSS | low polyreactivity |
| QVQLVESGGGLVQAGGSLRLSCAGSGSTFGWYVMGWYRQAPGKERELVASITGSGGSTYYADSVKGRFTISRDNAKNTAYLQMNSLKPEDTAVYYCAADTGWYDDWTHDYWGQGTQVTVSS | low polyreactivity |
| QVQLVESGGGLVQAGGSLRLSCAPSGFIFDGYTMGWYRQAPGKETELVAAITTSGTSTYYADSVKGRFTISRDNAKNTVYLQMNSLKPEDTAVYYCAARQYRHRVKYYYWGQGTQVTVSS | high polyreactivity |
| QVQLVESGGGLVQAGGSLRLSCAPSGFIFRYYAMGWYRHAPGKERELVAAISRTSGRTYYADSVKGRFTISRDNAKNTVYLQMNSLKPEYTAVDYCAAVVRNPGTYEYWGQGTQVTVSS | high polyreactivity |
| QVQLVESGGGLVQAGGSLRLSCAPSGFTFLKNAMGWYRQAPGKERELVAAITGSGGSTYYADSVKGRFTISRDTEKNTVYLQMYSLKPEDTAVYYCNVRRGLRDYEYWGQGTQVTVSS | high polyreactivity |
| QVQLVESGGGLVQAGGSLRLSCAPSGIIFFAYAMGWYRQAPGKERELVAAISSSGGRTYYADSVKGRFTISRDNAKHTVYLQMNSLKPEETPVYYCNARWHGSFDYWGQGTQVTVSS | low polyreactivity |
| QVQLVESGGGLVQAGGSLRLSCAPSGITLVRYAMGWYRQAPGKERELVAAISSSGGSTYYADSVKGRFTISRDNAMNPVYLQMNSLKPEDTAVYYCAKRLYYGDPPTYDYWGQGTQVTVSS | high polyreactivity |
| QVQLVESGGGLVQAGGSLRLSCAPSGNIFAINALGWYRQAPGKESELVATITGGGGSTSYADSVKGRFTISRDNAKNTVYLQMNSLKPEDTAVYSCAADTVYYYGEWYDYWNYVWFDYWGQGTQVTVSS | low polyreactivity |
| QVQLVESGGGLVQAGGSLRLSCAPSGRIFAYNTMGGYRQAPGKERELVAVSTSGGSTNYADSVKRRFTISRDNAKNTVYLQMNSLKTEDTAVYYCATLETTGVNYWGQGTQVTVSS | high polyreactivity |
| QVQLVESGGGLVQAGGSLRLSCAPSGRIFKRNTMGWYRQAPGKVRELVAAITGSSGSTYYADSVKGRFTISRDNAKNNVLLQMNSLKPEDTAVYYCNTVRSVYQYWPYNYWGQGTQETVSS | high polyreactivity |
| QVQLVESGGGLVQAGGSLRLSCAPSGRIFSWNAMGWYRQAPGKERELVAAISVRGGSTYADSVKGRFTISRDNAKNTVYLQMNSLKPEDTAVYYCAKTYYPYRLGEGQYEYDYWGQGTQVTVSS | low polyreactivity |
| QVQLVESGGGLVQAGGSLRLSCAPSGRIFSYNTMGWYRQAPGKERELVAAISRGGSTYYADSVKGRFTISRDNAKNTVYLQMNSLKPEDTAVYYCNALLPPGSRKYNYWGQGTQVTVSS | high polyreactivity |
| QVQLVESGGGLVQAGGSLRLSCAPSGRIFTRYARGWYRQAPGKERELVAVITRSGGSTYYADSVKGRFTISRDNAKNTVYLQMNSLKPEDTAVYYCAAKYYGEMYYWGQGTHVTVSS | low polyreactivity |
| QVQLVESGGGLVQAGGSLRLSCAPSGRIFWRYAMGWYRQAPGKERELVAGITYSGGRTYYADSVKGRFTISRDNAKNSVFLQMNSLKPEDSAVYYCAARGYFDALVDYWGQGTQVTVSS | low polyreactivity |
| QVQLVESGGGLVQAGGSLRLSCAPSGRIFYAYAMGWYRHAPGKERELVAAITIGGNTNYADSVKGRFTSSRDNAKNTVYLQMNSLKPEVTAVYDCNARTYYYPWRGYHVVGSNDLGYWGQGTQVTVST | low polyreactivity |
| QVQLVESGGGLVQAGGSLRLSCAPSGRTFKVNDMGWYRQAPGKERELVAAINYRGGRTYYADSVKGRFTISRDNAKNNFYLQMNSLKPEDTAFYYCNAQSGVVADDYWGQGTQVTVSS | high polyreactivity |
| QVQLVESGGGLVQAGGSLRLSCAPSGRTFRYYTMGWYRQAPGKERELVAAISSAGRTYYADSVKGRFTISRDNAKNTVYLQMNSLKPEDTAVYYCAAYGGDKIRMDYWGQGTQVTVSS | high polyreactivity |
| QVQLVESGGGLVQAGGSLRLSCAPSGRTFVHYTMGWYRQAPGKERELVAAISGTGTSTYYADSVKGRFTISRDNAKNTVYLQMNSLKPEDTAVYYCARRYWYPDAFYRYDYWGQGTQVTVSS | low polyreactivity |
| QVQLVESGGGLVQAGGSLRLSCAPSGRTFWAYAMGWYRQAPGKERELVAAITTSGGSTNYADSVKGRFTISRDNAKNTVYLQMNSLKPEDTAVYYCNADPTYHVVNGVGYWGQGTQVTESS | low polyreactivity |
| QVQLVESGGGLVQAGGSLRLSCAPSGRTFYPNVMGWSRQAPGKERELVAAITSGGSTYYADSVKGRFTISRDNAKNTVYLQMNSLKPEDTAVYYCAVAYAGGGSRKYDYWGQGTQVTVSS | low polyreactivity |
| QVQLVESGGGLVQAGGSLRLSCAPSGRTLFTNAMGWYRQAPGKERELVAAISIGGTTYYADSVKGRFTISRDNAKNTVYLQMNSLKPEDTAVYYCNKVRRFHSEYGYWGQGTQVTVSS | high polyreactivity |
| QVQLVESGGGLVQAGGSLRLSCAPSGRTLRGYAMGWYRQAPGKEREFVAAISSRGGSTYYADSVKGRFTISRDNAKNTVYLQMHSLKPEDTAVYYCAALRPLFATSHARDYWGQGTQVTVSS | high polyreactivity |
| QVQLVESGGGLVQAGGSLRLSCAPSGRTLYNYAMGWTRQAPGKERELVASITWSGGSTYYADSVKGRFTISRDNAKNTVYLQMTSLKPEDTAVYYCAAESSPGTFVRYGYRRYYYWGQGTQVTVSS | low polyreactivity |
| QVQLVESGGGLVQAGGSLRLSCAPSGRTYTVYTMGWYRQAPGKERELVAVISTGGRTYYADSVKGRFTISRDNAKNTVYLQMNSLKPEDTAVYYCAAKFTREYYWGQGTEVTVSS | high polyreactivity |
| QVQLVESGGGLVQAGGSLRLSCAPSGSIFHYNAMGWYRQAPGKEREFVAVISKSSGSTFYADSVKGRFTISRDNAKNTVYLLMISLKPEDTAVYYCNRVTKRYPNIGNYWGQGTQVSVSS | high polyreactivity |
| QVQLVESGGGLVQAGGSLRLSCAPSGSIFPDYAMGWYRHAPGKQRELVAAIRSGSRTYYADSVKGRFTISRDNAKITVYLQMNSLNPEDTAVYYCATTYGTPRYDYWGQGTQVTVSS | high polyreactivity |
| QVQLVESGGGLVQAGGSLRLSCAPSGSIFPYYAMGWYRQAPGKERELVAVITTSGGRTYYADSVKGRFTISRDNAKNTVYLQMNSLKPEDTAVYYCATDVRQGSGWRYYYWGQGTQVTVSS | high polyreactivity |
| QVQLVESGGGLVQAGGSLRLSCAPSGSIFRVYAMGWYRQAPGKERELVAAITIGTSTNYADSVKGRFTISRDNAKNTVYLQMNSLKPEDTAVYYCAAEWSYNLDSIASSPTSYDYWGQGTQVTVSS | low polyreactivity |
| QVQLVESGGGLVQAGGSLRLSCAPSGSISQTYAMGWYRQAPGKERELVAAISSSGASTYYADSVKGRFTISRDNAKNTVYLQMNSLKPEDTAVYYCAALGRYRYIYNYWGQGTQVTVSS | high polyreactivity |
| QVQLVESGGGLVQAGGSLRLSCAPSGSTFNYNAMVWYRQAPGKERELVARISWRGGSTYYADSVKGRFTISRDNAKNTVYLQMNSLKPEATAVYYCAATRYWYGSTYDYWGQGTQVTVSS | high polyreactivity |
